The record followed here is article PMC12191217, “Aptamer Development for SARS-CoV-2 and Omicron Variants Using the Spike Protein Receptor Binding Domain as a Potential Diagnostic Tool and Therapeutic Agent”.

In this data set the target is SARS-CoV-2 spike RBD (Wuhan-Hu-1), His-tagged (SARS-CoV-2 (Wuhan-Hu-1 strain), UniProt P0DTC2 319-541). The data set is described as follows: BLI; 3 mM MgCl2; 10 mM phosphate pH 7.4, 137 mM NaCl, 2.7 mM KCl, 3 mM MgCl2, 0.01% BSA, 0.002% Tween 20, 25 °C; aptamer 175-1400 nM, n=2. The following applies: protein: commercial; tags: His.

GCUGGUGCUGCAGCUUAUUAUGUGGGUUAUCUUCAACCUA (structured_RNA) [Aptamer 22]: binding was characterised by a dissociation constant (Kd) of 5450 ± 1700 nM.
Molecule GAUGGUAAUGCUGCUAUCAGCGAUUAUGACUACUAUCGUU (structured_RNA) [Aptamer 62] came in with a Kd of 285 ± 141 nM.
In the case of GAUUUUAGUCAUAGUCAGUUAGGUGGUUUACAUCUACUGA (structured_RNA) [Aptamer 11] it was 425 ± 146 nM; in that of GUUUCGGAAGAGACAGGUACGUUAAUAGUUAAUAGCGUAC (structured_RNA) [Aptamer 40], 571 ± 173 nM.
To CACUACCAAGAGUGUGUUAGAGGUACAACAGUACUUUUAA (structured_RNA) [Aptamer 23] belongs 29300 ± 10400 nM.

In general, Kd refers to a measure of binding affinity in units of concentration. The low end stands for tighter binding, the high end for weaker binding.
